Source: the supplement of paper PMC11865577

Assays:
Experiment in all cases: pull-down binding Z-score (relative to library population); higher = stronger binding
[1] = tested on: G-clamp-N3 (biotin conjugate); conditions: RNA library: Library-1 (pre-miRNA loops + repeats)
Outline: (§1)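 A heat-folded, dye-end-labelled (Cy5 or Cy3) RNA library (1 μg, phosphate/NaCl/KCl buffer) was exposed for 60 min at 25 °C to streptavidin beads holding 100 pmol of biotin-conjugated small molecule. RNA retained on the beads was eluted in hot SDS and hybridised to a DNA barcode microarray for 20 h at 55.5 °C. Binding scores were Z-scores against the library mean and standard deviation, calculated after subtracting beads alone and taking trimmed means of replicate probes.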

[2] = tested on: TO-N3 (biotin conjugate); conditions: RNA library: Library-2
Outline: as §1

[3] = tested on: TO-3-N3-2 (biotin conjugate); conditions: RNA library: Library-2
Outline: as §1

[4] = tested on: TO-3-N3 (biotin conjugate); conditions: RNA library: Library-2
Outline: as §1

[5] = tested on: TO-N3-2 (biotin conjugate); conditions: RNA library: Library-2
Outline: as §1

| Sequence | pull-down binding Z-score [1] | pull-down binding Z-score [2] | pull-down binding Z-score [3] | pull-down binding Z-score [4] | pull-down binding Z-score [5] |
| --- | --- | --- | --- | --- | --- |
| CAGGCUGGUCUCAAACUCCUGGUCUG [hsa-mir-1285-1] | -0.288 | -0.217 | -0.352 | -0.202 | -0.123 |
| UUAUCUGUCACCAGUCAGAUAACUGUCACCAGUCAGUUAA [hsa-mir-4764] | -0.644 | -0.684 | -0.324 | -0.842 | -0.396 |
| GAGAGUGCUUUCUGAAUGCAAUGC [hsa-mir-501] | 1.7 | -0.14 | -0.161 | -0.342 | 0.716 |
| GUGAACAUUGCAU [hsa-mir-4301] | -0.223 | -0.356 | -0.219 | -0.353 | -0.237 |
| CUGUUGUUUCAGCUCGACAACAACAG [hsa-mir-3937] | 0.361 | -0.333 | -0.335 | -0.212 | -0.505 |
| GACUUUUCUAUUUUCCAAAAGC [hsa-mir-423] | -0.657 | -0.568 | -0.142 | -0.475 | -0.573 |
| AUAAUACGGAUUACGUUGUUA [hsa-mir-137] | -1.89 | 0.148 | -0.139 | -0.188 | -0.0367 |
| UUUUCCUGAGAAUAAGAGAAGGAAGG [hsa-mir-4455] | -0.563 | 0.0683 | -0.0611 | -0.477 | 0.75 |
| UCCCAUUUCCACAUGGAGAGUGGAGCCCAGA [hsa-mir-3123] | 1.02 | 0.639 | 0.0927 | 0.384 | 0.671 |
| GUGUACCUCAUGUGUGUACAC [hsa-mir-5692a-2_5692a-1] | -0.853 | -0.563 | -0.344 | -0.584 | 0.335 |
| UCCAGGAUCUGGGUUUUGAGGUCUUGG [hsa-mir-4309] | 0.525 | 0.673 | 0.267 | 0.835 | 0.345 |
| UGUCAUUACUUUCAAUGGCA [hsa-mir-548h-2] | 0.222 | -0.978 | -0.4 | -0.726 | -1.22 |
| CAUGUUAAGUGUUGUCCUACAG [hsa-mir-5087] | -0.819 | -0.368 | -0.142 | -0.483 | 0.127 |
| AGGCAUGGGUGGCU [hsa-mir-8085] | 0.379 | 0.428 | 0.062 | 0.237 | 0.625 |
| AUGGUUUAGAGUUACACCCUGGGAGUUAACUGU [hsa-let-7c] | -0.228 | 0.437 | 0.565 | 0.351 | 0.0342 |
| CGAGGUGG [hsa-mir-4302] | -0.91 | 0.973 | -0.0533 | 0.954 | 0.675 |
| GAGUGAAUC [hsa-mir-3610] | -0.304 | -0.454 | -0.35 | -0.31 | -0.552 |
| UGGCUUCUGCCUCUUUCUUUGUGGAAGCCA [hsa-mir-4269] | 1.04 | -0.118 | -0.369 | 0.255 | -1.13 |
| CCAAUGGUAUCCAGUGAUUCGUUGA [hsa-mir-4709] | -0.854 | -0.0552 | -0.442 | -0.486 | 0.186 |
